Our source for the EC50 values is patent US20240409645A1 (published 2024).

A word on the EC50: it is the concentration needed to bring the measured effect to its halfway point. A lower EC50 goes with an effect from little substance.

T1: human IL-2 receptor IL-2Rα/IL-2Rβ/γc on HEK-Blue IL-2 cells (UniProt P01589 22-272; P14784 27-551; P31785 23-369)
T1 chain 1: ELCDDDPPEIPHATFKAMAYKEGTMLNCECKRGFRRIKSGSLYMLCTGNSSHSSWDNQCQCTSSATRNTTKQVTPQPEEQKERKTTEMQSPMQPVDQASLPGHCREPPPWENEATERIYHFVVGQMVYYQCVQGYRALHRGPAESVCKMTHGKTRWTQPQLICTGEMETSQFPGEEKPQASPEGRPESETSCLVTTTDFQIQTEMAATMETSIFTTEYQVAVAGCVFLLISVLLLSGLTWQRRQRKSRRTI
T1 chain 2: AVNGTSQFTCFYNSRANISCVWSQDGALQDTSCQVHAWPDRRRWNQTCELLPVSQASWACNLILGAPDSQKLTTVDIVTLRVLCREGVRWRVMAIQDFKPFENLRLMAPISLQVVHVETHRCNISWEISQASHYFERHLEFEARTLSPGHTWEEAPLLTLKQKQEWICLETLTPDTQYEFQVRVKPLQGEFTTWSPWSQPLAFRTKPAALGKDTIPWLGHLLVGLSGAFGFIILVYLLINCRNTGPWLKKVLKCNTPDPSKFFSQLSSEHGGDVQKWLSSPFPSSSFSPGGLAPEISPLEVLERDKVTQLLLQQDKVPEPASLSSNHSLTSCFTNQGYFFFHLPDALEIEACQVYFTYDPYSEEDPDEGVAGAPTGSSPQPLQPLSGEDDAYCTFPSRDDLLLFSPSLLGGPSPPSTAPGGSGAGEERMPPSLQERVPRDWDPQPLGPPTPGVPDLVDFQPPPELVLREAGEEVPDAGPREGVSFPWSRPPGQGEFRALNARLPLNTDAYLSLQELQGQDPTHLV
T1 chain 3: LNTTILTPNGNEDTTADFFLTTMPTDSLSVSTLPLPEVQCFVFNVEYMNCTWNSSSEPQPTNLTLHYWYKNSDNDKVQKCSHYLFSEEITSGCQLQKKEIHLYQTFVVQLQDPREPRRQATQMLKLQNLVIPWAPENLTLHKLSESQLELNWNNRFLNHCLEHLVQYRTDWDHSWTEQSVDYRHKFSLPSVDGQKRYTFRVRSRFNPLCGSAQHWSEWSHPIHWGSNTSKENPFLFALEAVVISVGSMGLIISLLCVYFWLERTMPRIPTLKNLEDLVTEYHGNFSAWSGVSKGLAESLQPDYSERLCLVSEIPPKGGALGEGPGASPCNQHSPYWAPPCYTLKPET

B1: BsVHH-11 (27x19) (antibody)
chain: QVQLVESGGGLVQAGGSLTLSCAAPGRTFGTDVVGWFRQAPGKEREFVASISRSGDGIYYDDSVKGRFTISRNNAWNTVNLQMNSLKVEDTAVYYCAAGDGWSTYDYWGQGTQVTVSSGGGGSGGGGSGGGGSGSEVQLVESGGGLVQTGGSLRLSCAASGGTFSRDAMAWFRQVPGKEREFVALISWSGATTNYADSVKGRFAISRDNGKNTVYLQMNRLKPADTAIYYCAADRRPMGSRSYFEPTEYDDWGQGTQVTVSSGGGGSGGGGSGGGGSTVSSDKTHTCPPCPAPEAAGGPSVFLFPPKPKDTLMISRTPEVTCVVVDVSHEDPEVKFNWYVDGVEVHNAKTKPREEQYNSTYRVVSVLTVLHQDWLNGKEYKCKVSNKALGAPIEKTISKAKGQPREPQVYTLPPSRDELTKNQVSLTCLVKGFYPSDIAVEWESNGQPENNYKTTPPVLDSDGSFLLYSKLTVDKSRWQQGNVFSCSVMHEALHNHYTQKSLSLSPGK
B2: BsVHH-10 (36x18) (antibody)
chain: QVQLVESGGGLVQAGGSLRLSCAASGRTLSRYAMGWFRQAPGSEREFVAASSWGGDTFYADSVEGRFTFSRDNAKNAVYLQMNSLQPEDTAAYYCAAAPTSFPTTAYSSSNSYAYWGQGTQVTVSSGGGGSGGGGSGGGGSGSQVQLVESGGGLVQPGGSLRLSCAISGGTLDSYGIGWVRQAPGKQREGVSCMSRSDDRTYYADSVKGRFTISKDSAKNTVYLQMTSLKPEDTAVYYCAAVDAYGCSLVQPTTYDFWGLGTQVTVSSGGGGSGGGGSGGGGSTVSSDKTHTCPPCPAPEAAGGPSVFLFPPKPKDTLMISRTPEVTCVVVDVSHEDPEVKFNWYVDGVEVHNAKTKPREEQYNSTYRVVSVLTVLHQDWLNGKEYKCKVSNKALGAPIEKTISKAKGQPREPQVYTLPPSRDELTKNQVSLTCLVKGFYPSDIAVEWESNGQPENNYKTTPPVLDSDGSFLLYSKLTVDKSRWQQGNVFSCSVMHEALHNHYTQKSLSLSPGK
B3: BsVHH-3 (32x16) (antibody)
chain: QVQLVESGGGLVQAGGSLRLSCAASGRTFGSTAVGWFRQVPGKEREFVSAINRSGSATTYADSVKGRFTISRDNAKNTVYLQMNSLTPEDTGVYYCAADSLPYGRPYYFQRSAGEYDYWGQGTQVTVSSGGGGSGGGGSGGGGSGSEVQLVESGGGLVQAGGSLRLSCAASGRAIENYPVGWFRQAPGKEREFVAAITWISGSTLYADSVKGRFTISRDNAKNTVYLQMSSLKPEDTALYYCAAALKTITRGQNDYSYWGQGTQVTVSSGGGGSGGGGSGGGGSTVSSDKTHTCPPCPAPEAAGGPSVFLFPPKPKDTLMISRTPEVTCVVVDVSHEDPEVKFNWYVDGVEVHNAKTKPREEQYNSTYRVVSVLTVLHQDWLNGKEYKCKVSNKALGAPIEKTISKAKGQPREPQVYTLPPSRDELTKNQVSLTCLVKGFYPSDIAVEWESNGQPENNYKTTPPVLDSDGSFLLYSKLTVDKSRWQQGNVFSCSVMHEALHNHYTQKSLSLSPGK
B4: BsVHH-4 (35x16) (antibody)
chain: QVQLQESGGGLVQGGGSLRLSCAASGGIFSSYAMGWFRQAPGKEREFVAAISRSGRSTNYADSVKGRFTISRDNAKSTVYLQMNSLKPEETAVYYCAAGRYYNSAYDPSPGDFGSWGHGTQVTVSSGGGGSGGGGSGGGGSGSEVQLVESGGGLVQAGGSLRLSCAASGRAIENYPVGWFRQAPGKEREFVAAITWISGSTLYADSVKGRFTISRDNAKNTVYLQMSSLKPEDTALYYCAAALKTITRGQNDYSYWGQGTQVTVSSGGGGSGGGGSGGGGSTVSSDKTHTCPPCPAPEAAGGPSVFLFPPKPKDTLMISRTPEVTCVVVDVSHEDPEVKFNWYVDGVEVHNAKTKPREEQYNSTYRVVSVLTVLHQDWLNGKEYKCKVSNKALGAPIEKTISKAKGQPREPQVYTLPPSRDELTKNQVSLTCLVKGFYPSDIAVEWESNGQPENNYKTTPPVLDSDGSFLLYSKLTVDKSRWQQGNVFSCSVMHEALHNHYTQKSLSLSPGK
B5: BsVHH-16 (27x22) (antibody)
chain: QVQLVESGGGLVQAGGSLTLSCAAPGRTFGTDVVGWFRQAPGKEREFVASISRSGDGIYYDDSVKGRFTISRNNAWNTVNLQMNSLKVEDTAVYYCAAGDGWSTYDYWGQGTQVTVSSGGGGSGGGGSGGGGSGSEVQLVESGGGLVQAGGSLRLSCAASGSIFSINAMAWFRQVPGMERELVAAISRDGGASVYRDSVKGRFTISRDNSKNTVYLQMNTLKPEDTAIYVCAATRAIGWTARWITTDFDFWGQGTQVTVSSGGGGSGGGGSGGGGSTVSSDKTHTCPPCPAPEAAGGPSVFLFPPKPKDTLMISRTPEVTCVVVDVSHEDPEVKFNWYVDGVEVHNAKTKPREEQYNSTYRVVSVLTVLHQDWLNGKEYKCKVSNKALGAPIEKTISKAKGQPREPQVYTLPPSRDELTKNQVSLTCLVKGFYPSDIAVEWESNGQPENNYKTTPPVLDSDGSFLLYSKLTVDKSRWQQGNVFSCSVMHEALHNHYTQKSLSLSPGK
B6: BsVHH-20 (36x22) (antibody)
chain: QVQLVESGGGLVQAGGSLRLSCAASGRTLSRYAMGWFRQAPGSEREFVAASSWGGDTFYADSVEGRFTFSRDNAKNAVYLQMNSLQPEDTAAYYCAAAPTSFPTTAYSSSNSYAYWGQGTQVTVSSGGGGSGGGGSGGGGSGSEVQLVESGGGLVQAGGSLRLSCAASGSIFSINAMAWFRQVPGMERELVAAISRDGGASVYRDSVKGRFTISRDNSKNTVYLQMNTLKPEDTAIYVCAATRAIGWTARWITTDFDFWGQGTQVTVSSGGGGSGGGGSGGGGSTVSSDKTHTCPPCPAPEAAGGPSVFLFPPKPKDTLMISRTPEVTCVVVDVSHEDPEVKFNWYVDGVEVHNAKTKPREEQYNSTYRVVSVLTVLHQDWLNGKEYKCKVSNKALGAPIEKTISKAKGQPREPQVYTLPPSRDELTKNQVSLTCLVKGFYPSDIAVEWESNGQPENNYKTTPPVLDSDGSFLLYSKLTVDKSRWQQGNVFSCSVMHEALHNHYTQKSLSLSPGK
B7: BsVHH-5 (36x16) (antibody)
chain: QVQLVESGGGLVQAGGSLRLSCAASGRTLSRYAMGWFRQAPGSEREFVAASSWGGDTFYADSVEGRFTFSRDNAKNAVYLQMNSLQPEDTAAYYCAAAPTSFPTTAYSSSNSYAYWGQGTQVTVSSGGGGSGGGGSGGGGSGSEVQLVESGGGLVQAGGSLRLSCAASGRAIENYPVGWFRQAPGKEREFVAAITWISGSTLYADSVKGRFTISRDNAKNTVYLQMSSLKPEDTALYYCAAALKTITRGQNDYSYWGQGTQVTVSSGGGGSGGGGSGGGGSTVSSDKTHTCPPCPAPEAAGGPSVFLFPPKPKDTLMISRTPEVTCVVVDVSHEDPEVKFNWYVDGVEVHNAKTKPREEQYNSTYRVVSVLTVLHQDWLNGKEYKCKVSNKALGAPIEKTISKAKGQPREPQVYTLPPSRDELTKNQVSLTCLVKGFYPSDIAVEWESNGQPENNYKTTPPVLDSDGSFLLYSKLTVDKSRWQQGNVFSCSVMHEALHNHYTQKSLSLSPGK
B8: BsVHH-6 (27x18) (antibody)
chain: QVQLVESGGGLVQAGGSLTLSCAAPGRTFGTDVVGWFRQAPGKEREFVASISRSGDGIYYDDSVKGRFTISRNNAWNTVNLQMNSLKVEDTAVYYCAAGDGWSTYDYWGQGTQVTVSSGGGGSGGGGSGGGGSGSQVQLVESGGGLVQPGGSLRLSCAISGGTLDSYGIGWVRQAPGKQREGVSCMSRSDDRTYYADSVKGRFTISKDSAKNTVYLQMTSLKPEDTAVYYCAAVDAYGCSLVQPTTYDFWGLGTQVTVSSGGGGSGGGGSGGGGSTVSSDKTHTCPPCPAPEAAGGPSVFLFPPKPKDTLMISRTPEVTCVVVDVSHEDPEVKFNWYVDGVEVHNAKTKPREEQYNSTYRVVSVLTVLHQDWLNGKEYKCKVSNKALGAPIEKTISKAKGQPREPQVYTLPPSRDELTKNQVSLTCLVKGFYPSDIAVEWESNGQPENNYKTTPPVLDSDGSFLLYSKLTVDKSRWQQGNVFSCSVMHEALHNHYTQKSLSLSPGK
B9: BsVHH-13 (32x19) (antibody)
chain: QVQLVESGGGLVQAGGSLRLSCAASGRTFGSTAVGWFRQVPGKEREFVSAINRSGSATTYADSVKGRFTISRDNAKNTVYLQMNSLTPEDTGVYYCAADSLPYGRPYYFQRSAGEYDYWGQGTQVTVSSGGGGSGGGGSGGGGSGSEVQLVESGGGLVQTGGSLRLSCAASGGTFSRDAMAWFRQVPGKEREFVALISWSGATTNYADSVKGRFAISRDNGKNTVYLQMNRLKPADTAIYYCAADRRPMGSRSYFEPTEYDDWGQGTQVTVSSGGGGSGGGGSGGGGSTVSSDKTHTCPPCPAPEAAGGPSVFLFPPKPKDTLMISRTPEVTCVVVDVSHEDPEVKFNWYVDGVEVHNAKTKPREEQYNSTYRVVSVLTVLHQDWLNGKEYKCKVSNKALGAPIEKTISKAKGQPREPQVYTLPPSRDELTKNQVSLTCLVKGFYPSDIAVEWESNGQPENNYKTTPPVLDSDGSFLLYSKLTVDKSRWQQGNVFSCSVMHEALHNHYTQKSLSLSPGK

For the assay, the target named is T1, human IL-2 receptor IL-2Rα/IL-2Rβ/γc on …. The experiment in a line: FACS cell binding; avid.
In turn, B1 returned an EC50 of 38.1 nM.

B2 came in with an EC50 of 4.2 nM. Next, B3: 3.7 nM; B4: 3.5 nM. B5 gave an EC50 of 659 nM. Next, B6: 3.4 nM; B7: 121 nM; B8: 172 nM. Next, B9: 41.8 nM.
